Positions count from the first letter of the chain named.
Tests used:
[1] = molecular target: T1, SNAP-25 peptide comprising amino acids 134-197 of SEQ ID NO: 5 (human); test: SPR (BIAcore 3000), peptide amine-coupled to CM5 chip, antibody as analyte, 1:1 fit
[2] = molecular target: T1, SNAP-25 peptide comprising amino acids …; test: SPR (BIAcore 3000), peptide amine-coupled to CM5 chip, antibody as analyte, 1:1 fit, second independent run on another chip
[3] = molecular target: T1, SNAP-25 peptide comprising amino acids …; test: SPR, comparison of the Kd values of Table 9
[4] = molecular target: T1, SNAP-25 peptide comprising amino acids …; test: SPR (BIAcore 3000), peptide amine-coupled to CM5 chip, antibody as analyte, 1:1 fit, first of two runs
[5] = molecular target: T1, SNAP-25 peptide comprising amino acids …; test: SPR, comparison of the KD values of Table 9
[6] = molecular target: SNAP-25 peptide comprising amino acids 134-197 of SEQ ID NO: 5 (human); test: SPR (BIAcore 3000), peptide amine-coupled to CM5 chip, antibody as analyte, 1:1 fit; remark: listed apart in the source

B1: α-SNAP-25 monoclonal antibody 3C1A5 (antibody, V domains shown)
VH: VKLQESGAELVKPGASVKISCKASGYTFTDHSIHWVKQKPGQGLEWIGYLFPGNGNFEYNEKFKGKATLTADKSSSTVYMYLNSLTSEDSAVYFCKRMGYWGQGTTVTVSS
VL: DIKMTQSPSSMYASLGERVTITCKASQDIKSYLSWYQQKPWKSPKTLIYYATSLADGVPSRFSGSGSGQDYSLTISSLESDDTATYYCLQHGESPFTFGSGTKLEIKR
- Kd [1]: 1.33 nM
- koff [1]: 0.000288 s⁻¹
- kon [1]: 217000 M⁻¹ s⁻¹

B2: α-SNAP-25 monoclonal antibody 2E2A6 (antibody)
chain 1: QVQLQQSDAELVKPGASVKISCRASGYTFTDHSIHWVKQQPGQGLEWIGYIFPGNGNIEYNDKFKGKATLTADKSSGTAYMQLNSLTSEDSAVYFCKRMGYWGQGTSVTVSS
chain 2: DVLMTQTPLTLSVTIGQPASISCKSSQSLLYTNGKTYLTWLFQRPGQSPKRLIYLVSELDSGVPDRFSGSGSGTDFTLEITRVEAEDLGVYYCLQSAHFPFTFGSGTKLEIKR
- Kd [2]: 0.405 nM
- koff [2]: 6.74e-05 s⁻¹
- kon [2]: 166000 M⁻¹ s⁻¹
- fold slower off rate against MC-6050 and MC-6053 [3]: > 1 fold
- Kd [4]: 0.09 nM
- koff [4]: 0.000153 s⁻¹
- kon [4]: 1.7e+06 M⁻¹ s⁻¹

B3: α-SNAP-25 monoclonal antibody 1D3B8 (antibody, V domains shown)
VH: VKLQESGAELVKPGASVKISCKASGYIFTDHALHWVRQKPEQGLEWIGYIFPGNGNIEYNEKFKGKATLTADKSSSTAYMQLNSLTSGDSAMYFCKKMDYWGQGTTVTVSS
VL: DVLMTQTPLSLPVSLGDQASISCRSSQSIVHSNGNTYLEWYLQKPGQSPKLLIYKVSNRFSGVPDRFSGSGSGTDFTLKISRVEAEDLGVYYCFQGSHVPPTFGAGTKLELKR
- Kd [1]: 0.05 nM
- koff [1]: 5.78e-05 s⁻¹
- kon [1]: 1.06e+06 M⁻¹ s⁻¹
- fold difference of equilibrium disassociation constant against MC-6050 and MC-6053 [5]: 10 fold

B4: α-SNAP-25 monoclonal antibody 2C9B10 (antibody, V domains shown)
VH: B1 VH with V78A, Y81H, R97K, G99D
VL: DIQMTQSPASLSASVGETVTITCRTTENIYSYFVWSQQRQGKSPQLRVYNAKSLAEGVPSSFNVSVSGTQFSLKINSLQPEDFGTYHCQHHYGTPYTFGGGTRLEIRR
- Kd [6]: 27.1 nM
- koff [6]: 0.000311 s⁻¹
- kon [6]: 11500 M⁻¹ s⁻¹

Reference: patent publication US20120122128A1
